Test [1] addresses T1, human myostatin (mature, recombinant; R&D Systems) (human, UniProt O14793 267-375).
T1 construct: biotinylated in the mRNA display selection; also called GDF-8; mature myostatin
T1 sequence: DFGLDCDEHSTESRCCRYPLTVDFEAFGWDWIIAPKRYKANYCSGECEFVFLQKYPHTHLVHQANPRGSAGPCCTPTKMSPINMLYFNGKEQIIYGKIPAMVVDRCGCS
The test can be described thus: competitive ELISA: 10 nM myostatin preincubated with soluble ActRIIb-Fc, then binding to plate-coated ActRIIb-Fc detected with biotinylated anti-myostatin polyclonal; % competition. The procedure:
Competitive ELISA: Competitive binding assays to evaluate the ability of anti-myostatin Adnectins to compete with the ActRIIB receptor binding to myostatin were carried out using competitive ELISA. Nunc Maxisorp plates were coated with 2 μg/mL ActRIIb-Fc (R&D Systems) in 0.2M sodium carbonate pH 9.6 buffer overnight at 4° C. After washing with PBS-T (PBS containing 0.05% Tween-20), wells were blocked with OptEIA buffer (BD Biosciences) for 1 h at 25° C. with shaking. Myostatin (10 nM; R&D Systems) was preincubated with a concentration range of Adnectin or ActRIIb-Fc competitor (0.2 pM to 1 μM) in OptEIA buffer for 1 h at 25° C. with shaking. The blocked and coated assay plate was washed with PBS-T, and then myostatin/competitor mixtures were added and incubated for 30 min at 25° C. with shaking. The assay plate was washed with PBS-T, after which bound myostatin was detected with 1:1000 biotinylated goat anti-myostatin polyclonal (R&D Systems) diluted in OptEIA, for 1 h at 25° C. with shaking. After washing with PBS-T, 1:5000 Streptavidin-HRP (Thermo/Pierce) diluted in OptEIA was added, followed by incubation for 30 min at 25° C. with shaking. The assay plate was developed with TMB (BD Biosciences), quenched with 2N sulfuric acid, and absorbance read at A450.
On the technique in general: An ELISA detects its analyte on a solid surface through an enzyme-linked reagent.

Test [2] addresses T2, human Activin A (R&D Systems) (human, UniProt P08476 311-426).
T2 sequence (looked up): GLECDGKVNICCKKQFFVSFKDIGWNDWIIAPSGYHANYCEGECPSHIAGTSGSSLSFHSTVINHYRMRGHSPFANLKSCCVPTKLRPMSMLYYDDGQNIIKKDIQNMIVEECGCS
The test can be described thus: SPR format A set-up. The text has this: Anti-human Fc antibody (Biacore/GE) was immobilized on a Biacore CM5 chip via NHS/EDC coupling according to the manufacturer's instructions. […] A concentration range of anti-myostatin Adnectin was applied across all flow cells in HBSP running buffer. Regeneration of the chip surface between cycles was accomplished with two 30 second pulses of 3M MgCl₂. Kinetic traces of reference-subtracted sensorgrams were fit to a 1:1 binding model using Biaevaluation software.

B1: ActRIIb-Fc (R&D Systems) (Fc fusion, human, UniProt Q13705 19-134, looked up, not shown: a dimerising Fc or GST)
chain: SGRGEAETRECIYYNANWELERTNQSGLERCEGEQDKRLHCYASWRNSSGTIELVKKGCWLDDFNCYDRQECVATEENPQVYFCCCEGNFCNERFTHLPEAGGPEVTYEPPPTAPT
modifications: Alexa Fluor 647 label in the HTRF assay
notes: also called rhActRIIb-Fc; Human Activin RIIB Fc Chimera
Regarding B1, the “IC50 (read off the curve)” value in test [1] is approximately 1 nM. The binding result in test [2] is “binds”.

(Values after patent US20170088602A1 (Bristol-Myers Squibb, published 2017).)
